This passage reports percent of parent results from paper PMC6831851 (2019).

The chains are these.
B1: neuron-derived neurotrophic factor (NENF) [human (endogenous in NTera2 and in fibroblasts)] / DJ-1 WT fused with FLAG [human] (parent complex)
chain 1: GQTPRPAERGPPVRLFTEEELARYGGEEEDQPIYLAVKGVVFDVTSGKEFYGRGAPYNALTGKDSTRGVAKMSLDPADLTHDTTGLTAKELEALDEVFTKVYKAKYPIVGYTARRILNEDGSPNLDFKPEDQPHFDIKDEF
chain 2: MASKRALVILAKGAEEMETVIPVDVMRRAGIKVTVAGLAGKDPVQCSRDVVICPDASLEDAKKEGPYDVVVLPGGNLGAQNLSESAAVKEILKEQENRKGLIAAICAGPTALLAHEIGFGSKVTTHPLAKDKMMNGGHYTYSENRVEKDGLILTSRGPGTSFEFALAIVEALNGKEVAAQVKAPLVLKD

In the test the parent is B1. The test can be described thus: co-immunoprecipitation (anti-FLAG IP, immunoblot with anti-NENF), band intensity; DJ-1 KO DNLCs; NENF band relative to FLAG (LC).
As to chain 2 E163K, the percent of parent is 0%.

Consider chain 2 C53A, for which the percent of parent was determined as 23%.

As to chain 2 H126A, the percent of parent stood at 73%.

As for chain 2 V51A, the percent of parent amounted to 45%.
